# Source: article PMC8787476
# Target: PERV TM_(493–587) (tag intact) (porcine endogenous retrovirus A (PERV-A))
# Test: SEC; Superdex 75 10/300 GL in 10 mM Tris-HCl, pH 7.5, 150 mM NaCl; calibrated with protein standards (Kav curve); apparent MW ~43 kDa against theoretical trimeric MW 39.9 kDa
substance,measurement,value
PERV TM_(493–587) (tag intact) (domain or fragment),stoichiometry N,3
